Molecular target: T1, RANK-N, soluble form of the extracellular domain of human RANK (human, UniProt Q9Y6Q6 29-213, N-glycosylated (28 kDa band shifts to about 21 kDa with PNGase F); predicted sites Asn 105 and Asn 174, not verified)
T1 construct: Codon-optimised gene cloned into pPIC9K cut with XhoI and NotI; no tag is named; also called recombinant RANK-N
T1 sequence (looked up): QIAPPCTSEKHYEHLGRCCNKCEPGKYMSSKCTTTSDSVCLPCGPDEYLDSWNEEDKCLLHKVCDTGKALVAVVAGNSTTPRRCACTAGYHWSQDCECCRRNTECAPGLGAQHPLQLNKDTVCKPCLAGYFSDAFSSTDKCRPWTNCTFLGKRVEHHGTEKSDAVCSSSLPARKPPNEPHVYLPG
Experiment: SPR; Biacore T100; RANKL amine-coupled to a CM5 chip; RANK-N (32.5 to 1000 nM) injected at 30 μl/min, 25 °C, contact 210 s, dissociation 400 s; running buffer 3 mM EDTA, 150 mM NaCl, 10 mM HEPES, 0.05% Surfactant P20; steady-state responses fit to the Hill equation
Settings: both partners purified

B1: RANKL (R&D Systems, 462-TEC-010/CF) (ligand, UniProt O35235 139-316, looked up)
chain: FSGAPAMMEGSWLDVAQRGKPEAQPFAHLTINAASIPSGSHKVTLSSWYHDRGWAKISNMTLSNGKLRVNQDGFYYLYANICFRHHETSGSVPTDYLQLMVYVVKTSIKIPSSHNLMKGGSTKNWSGNSEFHFYSINVGGFFKLRAGEEISIQVSNPSLLDPDQDATYFGAFKVQDID
notes: RANKL, recombinant protein bought from R&D Systems, catalogue 462-TEC-010/CF; As far as I recall, catalogue 462-TEC is R&D's recombinant mouse TRANCE/RANKL (soluble extracellular part, carrier-free); source: bought: R&D Systems (462-TEC-010/CF)
  Kd: 2.62 µM
